Numbering of substitutions follows the chain as printed.
T1: α-fructosyl-valyl-histidyl-leucyl-threonyl-proryl-glutamic acid
T1 chain: VHLTPE

B1: Cc95FX (protein)
chain: MAPSRANTSVIVVGGGGTIGSSTALHLVRSGYTPSNITVLDAYPIPSSQSAGNDLNKIMGIRLRNKVDLQLSLEARQMWREDDLFKEYFHNTGRLDCAHGEEGLADLRQAYQALLDANAGLEETTEWLDSEDEILKKMPLLSRDQIKGWKAVYSQDGGWLAAAKAINAIGEYLRAQGVKFGFGGAGSFKQPLLAEGVCIGVETVDGTRYYADKVVLAAGAWSPTLVELHEQCVSKAWVYGHIQLTPEEAAEYKNSPVVYNGDVGFFFEPNEHGVIKVCDEFPGFTRFKMHQPFGAKAPKRISVPRSHAKHPTDTIPDASEKSIRKAIATFLPKFTEKELFNRHLCWCTDTADAALLICEHPEWKNFVLATGDSGHSFKLLPNIGKHVVELLEGTLADDLAHAWRWRPGSGDALKSRRSAPAKDLADMPGWKHDDVVKSKL
B2: Cc95FX-62D/63H/106K/110L/113K/353S (protein)
chain: B1 chain with R62D, L63H, D106K, A110L, A113K, A353S
B3: CFP-T7-H3 (protein)
chain: MTSNRADTRVIVVGGGGTIGSSTALHLVRSGYAPANITVLDTFEIPSAQSAGHDLNKIMGIALRNKVDLQMSLEARQMWKEDELFQPFFHNTGRMDCEHTPEGIEDLKKFYQALHDAGAGLEKTHAWLDNEDEILSKMPLLQRDQIQGWKAIWSQDGGWLAAAKAINAIGQFLKERGVKFGFGGAGSFKQPLFDDEGTTCIGVETADGTKYYADKVVLAAGAWSPTLVDLEDQCCSKAWVYAHIQLTPEEAAEYKGVPVVYNGEFGFFFEPDEFGVIKVCDEFPGFSRFKEHQPYGAPSPKRISVPRSHAKHPTDTYPDASEVSIKKAIATFLPRFQDKELFNRALCWCTDTADAALLMCEHPKWKNFILATGDSGHSFKILPNVGKYVVELIEGRLPEEMAYQWRWRPGGDALKSRRAAPPKDLADMPGWKHDPKL
B4: CFP-T7-H4 (protein)
chain: B3 chain with F110Y
B5: CFP-T7-H25 (protein)
chain: B3 chain with A62D, L63D, D106K, F110L, A113K
B6: CFP-T7-H2-62Q (protein)
chain: B3 chain with A62Q, F110L
B7: CFP-T7-H7 (protein)
chain: B3 chain with A62D, R64A, F110L
B8: CFP-T7-H1 (protein)
chain: B3 chain with F110Q
B9: CFP-T7-H10 (protein)
chain: B3 chain with A62D, D106A, F110L
B10: CFP-T7-H24 (protein)
chain: B3 chain with A62D, L63A, D106K, F110L, A113K
B11: CFP-T7-H2-62E (protein)
chain: B3 chain with A62E, F110L
B12: CFP-T7-H12 (protein)
chain: B3 chain with A62D, D106R, F110L
B13: CFP-T7-H8 (protein)
chain: B3 chain with A62D, R64E, F110L
B14: CFP-T7-H6 (protein)
chain: B3 chain with A62D, F110L
B15: CFP-T7-H11 (protein)
chain: B3 chain with A62D, D106K, F110L
B16: CFP-T7-H14 (protein)
chain: B3 chain with A62D, F110L, A113R
B17: CFP-T7-H9 (protein)
chain: B3 chain with A62D, R64H, F110L
B18: CFP-T7-H13 (protein)
chain: B3 chain with A62D, F110L, A113K
B19: CFP-T7-H2-62N (protein)
chain: B3 chain with A62N, F110L
B20: AnFX (protein)
chain: MTPRANTKIIVVGGGGTMGSSTALHLLRAGYTPSNITVLDTCPIPSAQSAGYDLNKIMGIRLRNKPDLQLSLEALDMWKNDPLFKPFFHNVGMIDVSSTEEGIEGLRKKYQSLLDAGIGLEKTNFMLESEDEILAKAPHFTQEQIKGWKGLFCGDGGWLAAAKAINAIGQFLKEQGVKFGFGGAGTFKKPLFADAHEKTCIGVETVDGTKYYADKVVLAAGAWSSTLVDLEEQCVSKAWVFAHIQLTPAEAAAYKNTPVIYDGDYGFFFEPNENGIIKVCDEFPGFTHFKMHQPYGSPAPKPISVPRSHAKHPTDTYPHASEVTIKKAINRFLPRFNDKELFNRAMCWCTDTADANLLVCEHPRWKGFYLATGDSGHSFKLLPNIGKHVVELLEERLESVFKDAWRWRPGSGDALKSRRAAPAKDLADMPGWRNEAKM
B21: AnFX-61D/105K/109L (protein)
chain: B20 chain with R61D, G105K, K109L
B22: AnFX-61D/62H/101K/105K/109L/112K/355S (protein)
chain: B20 chain with R61D, L62H, E101K, G105K, K109L, S112K, A355S
B23: PnFX (protein)
chain: MAPSRANTSVIVVGGGGTIGSSTALHLVRSGYTPSNVTVLDAYPIPSSQSAGNDLNKIMGVSLRNPVDLQLALEARQMWNEDELFKKFFHNTGRLDCAHGEKDIADLKSGYQALVDAGLDATNEWLDSEDEILKRMPLLSRDQIKGWKAIFSKDGGWLAAAKAINAVGEYLRDQGVRFGFYGAGSFKAPLLAEGVCIGVETVDGTRYYADKVVLAAGAWSPTLVELHEQCVSKAWVYGHIQLTPEEAARYKNSPVVYNGDVGFFFEPNEHGVIKVCDEFPGFTRFKMHQPFGAKAPKRISVPRSHAKHPTDTIPDASDVSIRRAIATFMPQFKNKKMFNQAMCWCTDTADAALLICEHPEWKNFVLATGDSGHSFKLLPNIGKHVVELLEGTLADDLAHAWRWRPGSGDALKSRRSAPAKDLADMPGWNHDKPRANL
B24: PnFX-62D/106K/110L/113K (protein)
chain: B23 chain with S62D, D106K, G110L, A113K
B25: PnFX-62D/63H/106K/110L/113K/351S (protein)
chain: B23 chain with S62D, L63H, D106K, G110L, A113K, A351S
B26: NvFX-62D/106K/110L (protein)
chain: MTTPRKETTVLIIGGGGTIGSSTALHLLRAGYTPSNITVLDTYPIPSAQSAGNDLNKIMGIDLRNKVDLQLSLEARDMWRNDALFRPFFHNTGRLDCESSAEGVEKLRRLYQKLVEAGVGLEETHEWLDSEEAILEKAPLLQREEIEGWKAIWSEEGGWLAAAKAINAIGEELQRQGVRFGFGGAGSFKRPLFADDGTTCIGVETVDGTQYHADKVVLAAGAWSPALVDLEEQCCSKAWVYAHMQLTPEEAAVYKGCPVVYHGDVGFFFEPNENGVIKVCDEFPGFTRFKQHQPYGAPAPKPVSVPRSHAKHPTDTYPDASEESIKRAVSTFLPRFKDKPLFNRALCWCTDTADSALLICEHPRWKNFILATGDSGHSFKLLPIIGKHVVELVEGRLADDLAEAWRWRPGQGDARKSIRAAPAKDLADMPGWKHDQDSESR

Target: T1, α-fructosyl-valyl-histidyl-leucyl-threon …

Protein	αF6P oxidation activity (crude enzyme; αFVH oxidation activity = 100) (relative (αFVH = 100))	αF6P/αFV	αF6P/αFVH	αF6P oxidation activity ratio (crude enzyme; CFP-T7-H20 = 100) (relative (CFP-T7-H20 = 100))	αF6P oxidation activity ratio (crude enzyme; CFP-T7-H2 = 100) (relative (CFP-T7-H2 = 100))	αF6P oxidation activity ratio (crude enzyme; CFP-T7-H6 = 100) (relative (CFP-T7-H6 = 100))	Specific activity (U/mg), 1 mM αF6P, purified enzyme	fold of specific activity on αF6P against PnFX before mutation
B1	0	0	0					
B2	237	0.0144	2.37					
B3	0.0298	0.000205	0.000298					
B4	0.0341	0.000319	0.000341					
B5				24				
B6					11			
B7						17		
B8	0.0316	0.000222	0.000316					
B9						301		
B10	86.7	0.0461	0.867	123				
B11					21			
B12	11.6	0.0165	0.116			636		
B13						2		
B14	3	0.00347	0.03		513			
B15	12.5	0.0245	0.125			951		
B16	4.22	0.00519	0.0422			183		
B17						44		
B18	4.33	0.00579	0.0433			207		
B19					120			
B20							0 U/mg	
B21							0.106 U/mg	
B22							0.283 U/mg	
B23							0.0091 U/mg	
B24							0.125 U/mg	specific activity on αF6P was elevated by 13.7 fold
B25							0.667 U/mg	
B26							0.003 U/mg	

— patent US20160274129
